Biological target: T1, NXF1 (residues 117–619) (human, UniProt Q9UBU9 117-619)
T1 sequence: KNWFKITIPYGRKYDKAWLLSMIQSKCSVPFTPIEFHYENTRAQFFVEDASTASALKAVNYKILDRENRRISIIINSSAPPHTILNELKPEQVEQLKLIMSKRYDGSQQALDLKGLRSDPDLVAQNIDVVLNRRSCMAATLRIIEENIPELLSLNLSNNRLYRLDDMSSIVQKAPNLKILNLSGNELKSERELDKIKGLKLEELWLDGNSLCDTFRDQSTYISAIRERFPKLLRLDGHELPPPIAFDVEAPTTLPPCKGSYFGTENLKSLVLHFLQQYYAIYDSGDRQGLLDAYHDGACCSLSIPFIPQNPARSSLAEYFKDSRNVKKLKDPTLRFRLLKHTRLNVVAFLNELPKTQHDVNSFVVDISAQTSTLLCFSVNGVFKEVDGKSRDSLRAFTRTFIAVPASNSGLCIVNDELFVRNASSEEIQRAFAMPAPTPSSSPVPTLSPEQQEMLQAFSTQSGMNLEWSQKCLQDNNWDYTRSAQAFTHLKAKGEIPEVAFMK
Test: crystal structure

B1: NXT1 (residues 1–140) (natural protein)
chain: MASVDFKTYVDQACRAAEEFVNVYYTTMDKRRRLLSRLYMGTATLVWNGNAVSGQESLSEFFEMLPSSEFQISVVDCQPVHDEATPSQTTVLVVICGSVKFEGNKQRDFNQNFILTAQASPSNTVWKIASDCFRFQDWAS
- binding result: binds

Source: PMC6754785 (Nature microbiology, 2019)
